Results as given in US20060099643A1, “Method for determining the regulation of xenobiotic removal” (priority 2002, published 2006).

T1: SXR (Homo sapiens, UniProt O75469)
T1 sequence (O75469 1-434): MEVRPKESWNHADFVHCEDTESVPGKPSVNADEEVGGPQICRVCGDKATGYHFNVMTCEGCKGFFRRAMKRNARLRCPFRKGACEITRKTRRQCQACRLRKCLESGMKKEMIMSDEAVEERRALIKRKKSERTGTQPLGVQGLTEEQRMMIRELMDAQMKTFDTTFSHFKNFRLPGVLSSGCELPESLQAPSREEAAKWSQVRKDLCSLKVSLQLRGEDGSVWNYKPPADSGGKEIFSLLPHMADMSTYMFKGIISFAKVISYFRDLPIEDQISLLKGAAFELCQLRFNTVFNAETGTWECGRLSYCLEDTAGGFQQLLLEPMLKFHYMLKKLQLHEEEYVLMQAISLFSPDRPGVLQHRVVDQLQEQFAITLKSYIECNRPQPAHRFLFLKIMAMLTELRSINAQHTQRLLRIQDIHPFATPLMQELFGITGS

T2: ER-α (UniProt P03372 297-554, limits assumed)
T2 construct: also called estrogen receptor alpha
T2 sequence (looked up): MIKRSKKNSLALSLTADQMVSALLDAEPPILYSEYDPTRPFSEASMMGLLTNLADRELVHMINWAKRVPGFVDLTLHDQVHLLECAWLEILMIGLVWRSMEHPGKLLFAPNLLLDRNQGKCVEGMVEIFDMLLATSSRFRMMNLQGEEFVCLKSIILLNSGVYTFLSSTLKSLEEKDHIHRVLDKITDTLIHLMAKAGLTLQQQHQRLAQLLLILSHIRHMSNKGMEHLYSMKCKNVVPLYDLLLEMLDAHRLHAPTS

T3: SXR (UniProt O75469 130-434, limits assumed)
T3 construct: also called steroid and xenobiotic receptor; steroid X receptor
T3 sequence (looked up): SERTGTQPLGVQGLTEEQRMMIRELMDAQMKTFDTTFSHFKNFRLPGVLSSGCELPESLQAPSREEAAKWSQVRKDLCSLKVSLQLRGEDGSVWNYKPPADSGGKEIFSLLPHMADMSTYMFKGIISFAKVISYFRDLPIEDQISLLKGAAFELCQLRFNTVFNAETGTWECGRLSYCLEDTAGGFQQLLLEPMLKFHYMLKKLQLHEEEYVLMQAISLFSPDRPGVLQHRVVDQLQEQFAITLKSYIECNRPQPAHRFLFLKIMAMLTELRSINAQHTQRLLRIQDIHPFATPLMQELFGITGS


Columns and labels:
[1] = biological target: T1, SXR; assay: Microplate thermal shift assay (Thermofluor) of SXR with ligands, co-activator peptide SRC1-NR2 and co-repressor peptide NCoR-1; details: for ΔΔTm SRC1-NR2 / ΔTm ligand: SXR 6 μM, ligand 50 μM; for ΔΔTm SRC1-NR2: co-activator peptide SRC1-NR2 100 μM, change from the receptor-ligand ΔTm; for ΔTm ligand: average of four experiments; for ΔTm at 100 µM: read-out: ΔΔTm NcoR1-NR2
Procedure: A 2 μL ligand solution at 2 times the final concentration was dispensed with a micropipette into a 384 well black wall Greiner plate. Then, 2 μL of the protein dye solution was dispensed on top of the ligand solution in the 384 well plate. The plates were spun to ensure mixing of the protein-dye and ligand solutions followed by layering of 1 μL of silicone oil to prevent evaporation during heating of the samples. […] The values for the co-regulators represent a change in Tm stabilization from the receptor-ligand ΔTm values.

[2] = biological target: T1, SXR; details: from Ekins & Erickson, Drug Metabolism and Disposition, 30, 96-99 and references therein; cited from earlier work
[3] = biological target: T2, ER-α; assay: Thermofluor thermal shift; ER-α 8 µM, no ligand; peptide 100 µM
[4] = biological target: T4, ER-β (UniProt Q92731 256-505, limits assumed); assay: Thermofluor thermal shift; ER-β 8 µM, no ligand; peptide 100 µM
T4 construct: also called estrogen receptor beta
T4 sequence (Q92731 256-505 limits assumed): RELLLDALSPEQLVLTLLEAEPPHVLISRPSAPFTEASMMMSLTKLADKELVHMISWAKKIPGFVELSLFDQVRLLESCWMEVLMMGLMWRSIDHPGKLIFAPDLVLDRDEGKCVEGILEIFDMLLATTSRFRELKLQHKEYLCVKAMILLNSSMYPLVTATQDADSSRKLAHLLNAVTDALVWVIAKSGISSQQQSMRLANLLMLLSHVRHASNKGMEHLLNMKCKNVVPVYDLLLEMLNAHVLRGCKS

[5] = biological target: T3, SXR; assay: Thermofluor thermal shift; SXR 6 µM, ligand free; peptide 100 µM
[6] = biological target: T3, SXR; assay: Thermofluor thermal shift; SXR 6 µM with taxol 50 µM; peptide 100 µM
[7] = biological target: T2, ER-α; assay: Thermofluor thermal shift; ER-α 8 µM with estrone 20 µM; peptide 100 µM
[8] = biological target: T4, ER-β; assay: Thermofluor thermal shift; ER-β 8 µM with estrone 20 µM; peptide 100 µM
[9] = biological target: T3, SXR; assay: Thermofluor thermal shift; SXR 6 µM with cortisone 50 µM; peptide 100 µM
[10] = biological target: T3, SXR; assay: Thermofluor thermal shift; SXR 6 µM with estradiol 50 µM; peptide 100 µM
[11] = biological target: T2, ER-α; assay: Thermofluor thermal shift; ER-α 8 µM with estradiol 20 µM; peptide 100 µM
[12] = biological target: T2, ER-α; assay: Thermofluor thermal shift; ER-α 8 µM with tamoxifen 20 µM; peptide 100 µM
[13] = biological target: T4, ER-β; assay: Thermofluor thermal shift; ER-β 8 µM with estradiol 20 µM; peptide 100 µM
[14] = biological target: T4, ER-β; assay: Thermofluor thermal shift; ER-β 8 µM with tamoxifen 20 µM; peptide 100 µM
[15] = biological target: T3, SXR; assay: Thermofluor thermal shift; SXR 6 µM with clofibrate 50 µM; peptide 100 µM
[16] = biological target: T3, SXR; assay: Thermofluor thermal shift; SXR 6 µM with lovastatin 50 µM; peptide 100 µM
[17] = biological target: T2, ER-α; assay: Thermofluor thermal shift; ER-α 8 µM with ICI-182780 20 µM; peptide 100 µM
[18] = biological target: T4, ER-β; assay: Thermofluor thermal shift; ER-β 8 µM with ICI-182780 20 µM; peptide 100 µM
[19] = biological target: T3, SXR; assay: Thermofluor thermal shift; SXR 6 µM with 4-androstene 50 µM; peptide 100 µM
[20] = biological target: T3, SXR; assay: Thermofluor thermal shift; SXR 6 µM with androsterone 50 µM; peptide 100 µM
[21] = biological target: T2, ER-α; assay: Thermofluor thermal shift; ER-α 8 µM with 2-methoxy-E2 20 µM; peptide 100 µM
[22] = biological target: T4, ER-β; assay: Thermofluor thermal shift; ER-β 8 µM with 2-methoxy-E2 20 µM; peptide 100 µM
[23] = biological target: T3, SXR; assay: Thermofluor thermal shift; SXR 6 µM with corticosterone 50 µM; peptide 100 µM
[24] = biological target: T3, SXR; assay: Thermofluor thermal shift; SXR 6 µM with hydrocortisone 50 µM; peptide 100 µM
[25] = biological target: T2, ER-α; assay: Thermofluor thermal shift; ER-α 8 µM with 4-OH-tamoxifen 20 µM; peptide 100 µM
[26] = biological target: T4, ER-β; assay: Thermofluor thermal shift; ER-β 8 µM with 4-OH-tamoxifen 20 µM; peptide 100 µM
[27] = biological target: T3, SXR; assay: Thermofluor thermal shift; SXR 6 µM with lithocholic acid 50 µM; peptide 100 µM
[28] = biological target: T2, ER-α; assay: Thermofluor thermal shift; ER-α 8 µM with 17-α-ethylene-E2 20 µM; peptide 100 µM
[29] = biological target: T4, ER-β; assay: Thermofluor thermal shift; ER-β 8 µM with 17-α-ethylene-E2 20 µM; peptide 100 µM
[30] = biological target: T3, SXR; assay: Thermofluor thermal shift; SXR 6 µM with 17-α-hydroxyprogesterone 50 µM; peptide 100 µM
[31] = biological target: T3, SXR; assay: Thermofluor thermal shift; SXR 6 µM with 11-α-hydroxy-progesterone 50 µM; peptide 100 µM

Kd [1] [µM]	ΔΔTm SRC1-NR2 [1]	ΔTm ligand [1] [°C]	ΔTm at 100 µM [1] [°C]	Molecule	change in Tm stabilization from the receptor-ligand ΔTm [3]	change in Tm stabilization from the receptor-ligand ΔTm [4]	ΔΔTm [5]	ΔΔTm [6]	change in Tm stabilization from the receptor-ligand ΔTm [7]	change in Tm stabilization from the receptor-ligand ΔTm [8]	ΔΔTm [9]	ΔΔTm [10]	change in Tm stabilization from the receptor-ligand ΔTm [11]	change in Tm stabilization from the receptor-ligand ΔTm [12]	change in Tm stabilization from the receptor-ligand ΔTm [13]	change in Tm stabilization from the receptor-ligand ΔTm [14]	ΔΔTm [15]	ΔΔTm [16]	change in Tm stabilization from the receptor-ligand ΔTm [17]	change in Tm stabilization from the receptor-ligand ΔTm [18]	further results
0.55	3.0	6.3	1.2	CC[C@H](C)C(=O)O[C@H]1C[C@@H](C)C=C2C=C[C@H](C)[C@H](CC[C@@H]3C[C@@H](O)CC(=O)O3)[C@H]21 [Lovastatin]	–	–	–	–	–	–	–	–	–	–	–	–	–	–	–	–	Probability Agonist (statistical probability of agonist state) ([1]; computed from affinities derived from ΔΔTm with co-regulator peptides (FIG. 3)): 0.85; fold activation [2]: 5-fold
23	2.5	1.3	4.7	CC(=O)O[C@H]1C(=O)[C@@]2(C)[C@H]([C@H](OC(=O)c3ccccc3)[C@]3(O)C[C@H](OC(=O)[C@H](O)[C@@H](NC(=O)c4ccccc4)c4ccccc4)C(C)=C1C3(C)C)[C@]1(OC(C)=O)CO[C@@H]1C[C@@H]2O [Taxol]	–	–	–	–	–	–	–	–	–	–	–	–	–	–	–	–	EC50 [2]: 5 µM
–	–	–	–	co-repressor peptide NCoR-1 (from UniProt O75376 2044-2066)	0 °C	-0.4 °C	6.7 °C	4.7 °C	-0.3	-0.3	3.6 °C	2.3 °C	0 °C	0.1 °C	0 °C	0.4 °C	3.4 °C	1.2 °C	-0.6	0.3 °C	ΔΔTm [19]: 3.6 °C; ΔΔTm [20]: 3.8 °C; change in Tm stabilization from the receptor-ligand ΔTm [21]: -0.7 °C; change in Tm stabilization from the receptor-ligand ΔTm [22]: -0.7; ΔΔTm [23]: 0.5 °C; ΔΔTm [24]: 3.7 °C; change in Tm stabilization from the receptor-ligand ΔTm [25]: 0.1 °C; change in Tm stabilization from the receptor-ligand ΔTm [26]: 0.3; ΔΔTm [27]: 1.4 °C; change in Tm stabilization from the receptor-ligand ΔTm [28]: -0.1 °C; change in Tm stabilization from the receptor-ligand ΔTm [29]: -0.7; ΔΔTm [30]: 3.5 °C; ΔΔTm [31]: 1 °C
–	–	–	–	LTERHKILHRLLQEGSPSD (peptide, UniProt Q15788 683-701, looked up, Peptide fragment of SRC-1) [co-activator peptide SRC1-NR2]	0.8	0.7	2.9	2.5	3	3.8	2.9	3.9	4.9	-0.5	3.4	0.2	3.3	3	0.2	0.4	ΔΔTm [19]: 2.9; ΔΔTm [20]: 3.5; change in Tm stabilization from the receptor-ligand ΔTm [21]: 5.5; change in Tm stabilization from the receptor-ligand ΔTm [22]: 4.4; ΔΔTm [23]: 2.7; ΔΔTm [24]: 3.3; change in Tm stabilization from the receptor-ligand ΔTm [25]: 0.2; change in Tm stabilization from the receptor-ligand ΔTm [26]: 0.2; ΔΔTm [27]: 2.9; change in Tm stabilization from the receptor-ligand ΔTm [28]: 4.5; change in Tm stabilization from the receptor-ligand ΔTm [29]: 2.6; ΔΔTm [30]: 3.3; ΔΔTm [31]: 4.6
